B1: Cytoplasmic FMR1-interacting protein 1 (Homo sapiens), Q7L576 (parent)
chain: MAAQVTLEDALSNVDLLEELPLPDQQPCIEPPPSSLLYQPNFNTNFEDRNAFVTGIARYIEQATVHSSMNEMLEEGQEYAVMLYTWRSCSRAIPQVKCNEQPNRVEIYEKTVEVLEPEVTKLMNFMYFQRNAIERFCGEVRRLCHAERRKDFVSEAYLITLGKFINMFAVLDELKNMKCSVKNDHSAYKRAAQFLRKMADPQSIQESQNLSMFLANHNKITQSLQQQLEVISGYEELLADIVNLCVDYYENRMYLTPSEKHMLLKVMGFGLYLMDGSVSNIYKLDAKKRINLSKIDKYFKQLQVVPLFGDMQIELARYIKTSAHYEENKSRWTCTSSGSSPQYNICEQMIQIREDHMRFISELARYSNSEVVTGSGRQEAQKTDAEYRKLFDLALQGLQLLSQWSAHVMEVYSWKLVHPTDKYSNKDCPDSAEEYERATRYNYTSEEKFALVEVIAMIKGLQVLMGRMESVFNHAIRHTVYAALQDFSQVTLREPLRQAIKKKKNVIQSVLQAIRKTVCDWETGHEPFNDPALRGEKDPKSGFDIKVPRRAVGPSSTQLYMVRTMLESLIADKSGSKKTLRSSLEGPTILDIEKFHRESFFYTHLINFSETLQQCCDLSQLWFREFFLELTMGRRIQFPIEMSMPWILTDHILETKEASMMEYVLYSLDLYNDSAHYALTRFNKQFLYDEIEAEVNLCFDQFVYKLADQIFAYYKVMAGSLLLDKRLRSECKNQGATIHLPPSNRYETLLKQRHVQLLGRSIDLNRLITQRVSAAMYKSLELAIGRFESEDLTSIVELDGLLEINRMTHKLLSRYLTLDGFDAMFREANHNVSAPYGRITLHVFWELNYDFLPNYCYNGSTNRFVRTVLPFSQEFQRDKQPNAQPQYLHGSKALNLAYSSIYGSYRNFVGPPHFQVICRLLGYQGIAVVMEELLKVVKSLLQGTILQYVKTLMEVMPKICRLPRHEYGSPGILEFFHHQLKDIVEYAELKTVCFQNLREVGNAILFCLLIEQSLSLEEVCDLLHAAPFQNILPRVHVKEGERLDAKMKRLESKYAPLHLVPLIERLGTPQQIAIAREGDLLTKERLCCGLSMFEVILTRIRSFLDDPIWRGPLPSNGVMHVDECVEFHRLWSAMQFVYCIPVGTHEFTVEQCFGDGLHWAGCMIIVLLGQQRRFAVLDFCYHLLKVQKHDGKDEIIKNVPLKKMVERIRKFQILNDEIITILDKYLKSGDGEGTPVEHVRCFQPPIHQSLASS

Variants of: B1
Settings: with if4e_human EIF4E

effect of a mutation on the interaction	Variant
decreasing interaction	D724A;R726A
decreasing interaction	K725E

Source: IntAct's records for PubMed 18805096
